Results: patent WO2012175740A1

Biological target: cyno IgE c(epsilon)2-c(epsilon)3-c(epsilon)4 Fc fragment with C-terminal (His)10 tag (cynomolgus monkey)
Assay: Alphascreen, competition with HuFc(epsilon)RI(alpha)Fc for cyno IgE Fc

cyno IgE c(epsilon)2-c(epsilon)3-c(epsilon)4 Fc fragment with C-terminal (His)10 tag (cynomolgus monkey), sequence (chain, as listed by the source): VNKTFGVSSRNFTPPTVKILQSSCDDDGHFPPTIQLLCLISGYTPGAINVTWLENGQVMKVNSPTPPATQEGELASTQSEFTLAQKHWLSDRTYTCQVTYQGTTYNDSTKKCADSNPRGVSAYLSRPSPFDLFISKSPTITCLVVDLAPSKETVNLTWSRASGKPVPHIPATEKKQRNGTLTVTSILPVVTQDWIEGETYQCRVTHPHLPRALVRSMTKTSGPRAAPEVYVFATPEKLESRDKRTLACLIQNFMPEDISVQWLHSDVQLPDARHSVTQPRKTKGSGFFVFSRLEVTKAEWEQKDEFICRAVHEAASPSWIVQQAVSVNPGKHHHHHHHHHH

% inhibition at 250 nM Nanobody: 38%
B1: Nanobody 39B2 (VHH, not shown: small tags and cut ends)
VHH: EVQLVESGGGLVQPGGSLRLSCAASGFTFGSYDMSWVRQAPGKGPEWVSAINSGGGSTYYADSVKGRFTISRDNAKNTLYLQMNSLKPEDTAVYYCSTDLGPWIEGTMEEYEYEYWGQGTQVTVSS
